# Measurements reported in IntAct's records for PubMed 31515488.
# B1: Protein SSX5 (Homo sapiens), O60225 (parent)
# chain: MNGDDAFVRRPRVGSQIPEKMQKAFDDIAKYFSEKEWEKMKASEKIIYVYMKRKYEAMTKLGFKATLPPFMRNKRVADFQGNDFDNDPNRGNQVEHPQMTFGRLQGIFPKITPEKPAEEGNDSKGVPEASGPQNNGKQLRPSGKLNTSEKVNKTSGPKRGKHAWTHRVRERKQLVIYEEISDPQEDDE
# B2: DNA replication complex GINS protein PSF2 (Homo sapiens), Q9Y248 (parent)
# chain: MDAAEVEFLAEKELVTIIPNFSLDKIYLIGGDLGPFNPGLPVEVPLWLAINLKQRQKCRLLPPEWMDVEKLEKMRDHERKEETFTPMPSPYYMELTKLLLNHASDNIPKADEIRTLVKDMWDTRIAKLRVSADSFVRQQEAHAKLDNLTLMEINTSGTFLTQALNHMYKLRTNLQPLESTQSQDF
# B3: Tumor susceptibility gene 101 protein (Homo sapiens), Q99816 (parent)
# chain: MAVSESQLKKMVSKYKYRDLTVRETVNVITLYKDLKPVLDSYVFNDGSSRELMNLTGTIPVPYRGNTYNIPICLWLLDTYPYNPPICFVKPTSSMTIKTGKHVDANGKIYLPYLHEWKHPQSDLLGLIQVMIVVFGDEPPVFSRPISASYPPYQATGPPNTSYMPGMPGGISPYPSGYPPNPSGYPGCPYPPGGPYPATTSSQYPSQPPVTTVGPSRDGTISEDTIRASLISAVSDKLRWRMKEEMDRAQAELNALKRTEEDLKKGHQKLEEMVTRLDQEVAEVDKNIELLKKKDEELSSALEKMENQSENNDIDEVIIPTAPLYKQILNLYAEENAIEDTIFYLGEALRRGVIDLDVFLKHVRLLSRKQFQLRALMQKARKTAGLSDLY
# B4: L-fucose dehydrogenase (Homo sapiens), Q9BPX1 (parent)
# chain: MATGTRYAGKVVVVTGGGRGIGAGIVRAFVNSGARVVICDKDESGGRALEQELPGAVFILCDVTQEDDVKTLVSETIRRFGRLDCVVNNAGHHPPPQRPEETSAQGFRQLLELNLLGTYTLTKLALPYLRKSQGNVINISSLVGAIGQAQAVPYVATKGAVTAMTKALALDESPYGVRVNCISPGNIWTPLWEELAALMPDPRATIREGMLAQPLGRMGQPAEVGAAAVFLASEANFCTGIELLVTGGAELGYGCKASRSTPVDAPDIPS
# partner: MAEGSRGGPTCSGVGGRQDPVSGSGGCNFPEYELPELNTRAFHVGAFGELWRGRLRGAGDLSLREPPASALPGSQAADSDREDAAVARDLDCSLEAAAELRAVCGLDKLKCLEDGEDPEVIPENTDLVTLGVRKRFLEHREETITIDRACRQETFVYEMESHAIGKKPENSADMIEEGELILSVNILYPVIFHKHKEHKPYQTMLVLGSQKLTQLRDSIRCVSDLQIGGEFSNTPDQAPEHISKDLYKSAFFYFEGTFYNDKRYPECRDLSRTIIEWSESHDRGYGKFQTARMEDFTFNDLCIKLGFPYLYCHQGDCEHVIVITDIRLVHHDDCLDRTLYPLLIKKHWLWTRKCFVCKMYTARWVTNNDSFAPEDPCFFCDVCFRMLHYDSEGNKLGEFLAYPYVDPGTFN
# B5: Ubiquitin thioesterase OTUB2 (Homo sapiens), Q96DC9 (parent)
# chain: MSETSFNLISEKCDILSILRDHPENRIYRRKIEELSKRFTAIRKTKGDGNCFYRALGYSYLESLLGKSREIFKFKERVLQTPNDLLAAGFEEHKFRNFFNAFYSVVELVEKDGSVSSLLKVFNDQSASDHIVQFLRLLTSAFIRNRADFFRHFIDEEMDIKDFCTHEVEPMATECDHIQITALSQALSIALQVEYVDEMDTALNHHVFPEAATPSVYLLYKTSHYNILYAADKH
# partner: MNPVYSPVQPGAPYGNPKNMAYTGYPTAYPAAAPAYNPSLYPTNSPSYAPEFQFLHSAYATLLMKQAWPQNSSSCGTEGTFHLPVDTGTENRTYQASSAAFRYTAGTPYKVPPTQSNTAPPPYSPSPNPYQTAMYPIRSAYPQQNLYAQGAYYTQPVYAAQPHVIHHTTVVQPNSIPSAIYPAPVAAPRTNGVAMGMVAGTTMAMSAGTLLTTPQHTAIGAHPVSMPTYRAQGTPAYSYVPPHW
# Variants of: B1
# Settings: with atrap_human AGTRAP
row,effect of a mutation on the interaction,Variant
1,with no effect,K20N

# Variants of: B2
# Settings: with sld5_human GINS4, Q9BRT9
# sld5_human GINS4, Q9BRT9, sequence (Q9BRT9 whole entry): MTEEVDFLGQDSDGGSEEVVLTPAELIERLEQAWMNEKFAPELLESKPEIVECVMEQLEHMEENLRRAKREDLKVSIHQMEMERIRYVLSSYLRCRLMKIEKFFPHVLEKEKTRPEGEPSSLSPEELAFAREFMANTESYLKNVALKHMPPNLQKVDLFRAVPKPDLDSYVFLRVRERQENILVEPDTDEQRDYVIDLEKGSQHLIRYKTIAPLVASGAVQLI
row,effect of a mutation on the interaction,Variant
1,with no effect,T172K
2,with no effect,L150S

# Continued, variant first:
row,Variant,effect of a mutation on the interaction
1,I26T,with no effect
2,D24G,with no effect

# Variants of: B3
# Settings: with hgs_human HGS
row,effect of a mutation on the interaction,Variant
1,with no effect,M167I

# Variants of: B4
# Settings: with snpc3_human SNAPC3, Q92966
row,effect of a mutation on the interaction,Variant
1,disrupting interaction strength,R130W
2,with no effect,A56T
3,disrupting interaction strength,G16W
4,with no effect,N31D

# Variants of: B5
# Settings: with FAM168A
row,effect of a mutation on the interaction,Variant
1,with no effect,V78I
